Target: 26S proteasome purified from rabbit muscle (rabbit (endogenous in muscle))

hydrolysis of suc-GGL-amc by rabbit 26S proteasomes with ubiquitinated E6AP: < 4 fold
Substance: polyubiquitinated E6AP (from UniProt P0CG47 1-76)

— publication PMC2796264
